Measurements taken from publication doi:10.1101/2024.07.30.605722 (bioRxiv, 2024).

Legend:
PDIA6 a^0 domain (human) = assay: co-sedimentation
native MS = target: the molecule itself; assay: native MS

Molecule: MBP fusion protein of PDIA6 b domain (domain or fragment)
- b amount left in the supernatant (PDIA6 a^0 domain (human)): 60%

B1: PDIA6 (enzyme, human, UniProt Q15084 20-440, looked up)
chain: LYSSSDDVIELTPSNFNREVIQSDSLWLVEFYAPWCGHCQRLTPEWKKAATALKDVVKVGAVDADKHHSLGGQYGVQGFPTIKIFGSNKNRPEDYQGGRTGEAIVDAALSALRQLVKDRLGGRSGGYSSGKQGRSDSSSKKDVIELTDDSFDKNVLDSEDVWMVEFYAPWCGHCKNLEPEWAAAASEVKEQTKGKVKLAAVDATVNQVLASRYGIRGFPTIKIFQKGESPVDYDGGRTRSDIVSRALDLFSDNAPPPELLEIINEDIAKRTCEEHQLCVVAVLPHILDTGAAGRNSYLEVLLKLADKYKKKMWGWLWTEAGAQSELETALGIGGFGYPAMAAINARKMKFALLKGSFSEQGINEFLRELSFGRGSTAPVGGGAFPTIVEREPWDGRDGELPVEDDIDLSDVELDDLGKDEL
- stoichiometry N (native MS): 2
